Measurements published in patent US20230265217A1 (TWIST BIOSCIENCE, published 2023).
Numbering of substitutions follows the chain as printed.

B1: 7-31 (VHH, not shown: a dimerising Fc or GST)
VHH: EVQLVESGGGLVQPGGSLRLSCAASGFTFSNYSMGWFRQAPGKEREFVAAIHWNGDSTAYADSVKGRFTISADNSKNTAYLQMNSLKPEDTAVYYCAAQTEDSAQYIWGQGTLVTVSS
B2: 8-06 (VHH, not shown: a dimerising Fc or GST)
VHH: EVQLVESGGGLVQPGGSLRLSCAASGFTFDYYAMGWFRQAPGKEREFVSAIDSEGRTSYADSVKGRFTISADNSKNTAYLQMNSLKPEDTAVYYCARWGPFDIWGQGTLVTVSS
notes: also called 8-6
B3: 3-24 (VHH, not shown: a dimerising Fc or GST)
VHH: EVQLVESGGGLVQPGGSLRLSCAASGINFSRYGMGWFRQAPGKEREFVASITYLGRTNYADSVKGRFTISADNSKNTAYLQMNSLKPEDTAVYYCALRVRPYGQYDWGQGTLVTVSS
B4: 7-30 (VHH, not shown: a dimerising Fc or GST)
VHH: EVQLVESGGGLVQPGGSLRLSCAASGRTFSMHAMGWFRQAPGKEREFVASISSQGRTNYADSVKGRFTISADNSKNTAYLQMNSLKPEDTAVYYCAAEVRNGSDYLPIDWGQGTLVTVSS
B5: 8-3 (VHH, not shown: a dimerising Fc or GST)
VHH: EVQLVESGGGLVQPGGSLRLSCAASGTTLDYYAMGWFRQAPGKEREFVAAISWSGGSTAYADSVKGRFTISADNSKNTAYLQMNSLKPEDTAVYYCAREDYYDSSGYSWGQGTLVTVSS
B6: 7-6 (VHH, not shown: a dimerising Fc or GST)
VHH: EVQLVESGGGLVQPGGSLRLSCAASGRIFYPMGWFRQAPGKEREFVAAVRWSSTGIYYTQYADSVKGRFTISADNSKNTAYLQMNSLKPEDTAVYYCAAALSEVWRGSENLREGYDWGQGTLVTVSS
B7: 7-17 (VHH, not shown: a dimerising Fc or GST)
VHH: EVQLVESGGGLVQPGGSLRLSCAASGFSLDYYGMGWFRQAPGKEREFVAAITSGGTPHYADSVKGRFTISADNSKNTAYLQMNSLKPEDTAVYYCASAYNPGIGYDWGQGTLVTVSS
B8: 7-21 (VHH)
VHH: EVQLVESGGGLVQPGGSLRLSCAASGRTISRYTMGWFRQAPGKEREFVASITSGGSTAYADSVKGRFTISADNSKNTAYLQMNSLKPEDTAVYYCAKEDVGKPFDWGQGTLVTVSS
B9: 7-45 (VHH)
VHH: B8 VHH with I29L, A58N
B10: 7-40 (VHH)
VHH: B8 VHH with I29F, S30R, S53K, G54F, A58N
B11: 7-22 (VHH, not shown: a dimerising Fc or GST)
VHH: B8 VHH with S30T, E98Q
B12: 7-41 (VHH)
VHH: B8 VHH with I29F, R31T, T33V, T52S, G54R, S56I, A58H
B13: 7-32 (VHH)
VHH: EVQLVESGGGLVQPGGSLRLSCAASGSTFSVNAMGWFRQAPGKEREFVAGVTRGGYTNYADSVKGRFTISADNSKNTAYLQMNSLKPEDTAVYYCAADGVPEYSDYASGPVWGQGTLVTVSS
B14: 7-26 (VHH)
VHH: EVQLVESGGGLVQPGGSLRLSCAASGSTFSINAMGWFRQAPGKEREFVAGITSSGGYTNYADSVKGRFTISADNSKNTAYLQMNSLKPEDTAVYYCAADGVPEYSDYASGPVWGQGTLVTVSS
B15: 3-31 (VHH)
VHH: B14 VHH
notes: also called 3-31_ExpiCHO
B16: 7-8 (VHH)
VHH: B14 VHH with S30T, A49S, T52S, S53H, S54N, Y57T
B17: 3-17 (VHH, not shown: a dimerising Fc or GST)
VHH: EVQLVESGGGLVQPGGSLRLSCAASGRTSSSAVMGWFRQAPGKEREFVAAINRGGSTIYVDSVKGRFTISADNSKNTAYLQMNSLKPEDTAVYYCATGPYRSYFARSYLWGQGTLVTVSS
B18: 7-29 (VHH, not shown: a dimerising Fc or GST)
VHH: EVQLVESGGGLVQPGGSLRLSCAASGRTHSIYPMGWFRQAPGKEREFVASITSYGDTNYADSVKGRFTISADNSKNTAYLQMNSLKPEDTAVYYCAARRWIPPGPIWGQGTLVTVSS
B19: 3-28 (VHH, not shown: a dimerising Fc or GST)
VHH: EVQLVESGGGLVQPGGSLRLSCAASGFTFRRYDMGWFRQAPGKEREFVSAISGGLAYYADSVKGRFTISADNSKNTAYLQMNSLKPEDTAVYYCAVDLSGDAVYDWGQGTLVTVSS
B20: 7-24 (VHH, not shown: a dimerising Fc or GST)
VHH: EVQLVESGGGLVQPGGSLRLSCAASGFTFSRHAMNWFRQAPGKEREFVSTITGSGGSTNYADSVKGRFTISADNSKNTAYLQMNSLKPEDTAVYYCAREVGLYYYGSGSSSRRLLGRIDYYFDYWGQGTLVTVSS
B21: 8-10 (VHH, not shown: a dimerising Fc or GST)
VHH: EVQLVESGGGLVQPGGSLRLSCAASGFIGNYHAMGWFRQAPGKEREFVAAVTWSGGTTNYADSVKGRFTISADNSKNTAYLQMNSLKPEDTAVYYCAREGYYYDSSGYPYYFDYWGQGTLVTVSS
B22: 5A-1 (VHH)
VHH: EVQLVESGGGLVQPGGSLRLSCAASGGTFSSIGMGWFRQAPGKEREFVAAISWDGGATAYADSVKGRFTISADNSKNTAYLQMNSLKPEDTAVYYCAKEDVGKPFDWGQGTLVTVSS
B23: 6A-3 (VHH)
VHH: EVQLVESGGGLVQPGGSLRLSCAASGFTFSPSWMGWFRQAPGKEREFVATINEYGGRNYADSVKGRFTISADNSKNTAYLQMNSLKPEDTAVYYCARVDRDFDYWGQGTLVTVSS
B24: 6A-63 (VHH)
VHH: EVQLVESGGGLVQPGGSLRLSCAASGQTFNMGWFRQAPGKEREFVAAIGSGGSTSYADSVKGRFTISADNSKNTAYLQMNSLKPEDTAVYYCWRLGNDYFDYWGQGTLVTVSS

Target: T1, Antibody 178-08_His 501.V2 (27079) (SARS-CoV-2, UniProt P0DTC2 14-685)
T1 construct: domain: S1; also called TB178-8
Experiment: Carterra SPR

Row | Binder | binding result | Kd
1 | B1 | no binding | –
2 | B2 | no binding | –
3 | B3 | – | 586 nM
4 | B4 | no binding | –
5 | B5 | – | 1.7 nM
6 | B6 | no binding | –
7 | B7 | no binding | –
8 | B8 | no binding | –
9 | B9 | no binding | –
10 | B10 | no binding | –
11 | B11 | no binding | –
12 | B12 | no binding | –
13 | B13 | no binding | –
14 | B14 | – | 74.9 nM
15 | B15 | – | 96700 nM
16 | B16 | no binding | –
17 | B17 | no binding | –
18 | B18 | no binding | –
19 | B19 | – | 22 nM
20 | B20 | no binding | –
21 | B21 | no binding | –

Target: T2, Antibody 178-10_His CA_W152C_L452R_D614G (27081) (SARS-CoV-2, UniProt P0DTC2 14-685)
T2 construct: domain: S1; also called CA variant S1; California variant S1
Experiment: Carterra SPR

Row | Binder | binding result | Kd
22 | B1 | no binding | –
23 | B2 | no binding | –
24 | B3 | no binding | –
25 | B4 | – | 55.9 nM
26 | B5 | – | 100 nM
27 | B6 | no binding | –
28 | B7 | no binding | –
29 | B8 | – | 277 nM
30 | B9 | no binding | –
31 | B10 | no binding | –
32 | B11 | – | 698 nM
33 | B12 | – | 95.5 nM
34 | B13 | no binding | –
35 | B14 | – | 34.8 nM
36 | B15 | – | 41 nM
37 | B16 | no binding | –
38 | B17 | no binding | –
39 | B18 | no binding | –
40 | B19 | no binding | –
41 | B20 | no binding | –
42 | B21 | no binding | –

Target: T3, Antibody 178-09_His B.1.1.7 (27080) (SARS-CoV-2, UniProt P0DTC2 14-685)
T3 construct: domain: S1; also called TB178-9
Experiment: Carterra SPR

Row | Binder | Kd | binding result
43 | B1 | 388 nM | –
44 | B2 | 141 nM | –
45 | B3 | 2610 nM | –
46 | B4 | 32 nM | –
47 | B5 | 40.5 nM | –
48 | B6 | 42.4 nM | –
49 | B7 | 39.8 nM | –
50 | B8 | 35.6 nM | –
51 | B9 | 43.4 nM | –
52 | B10 | – | no binding
53 | B11 | 41.7 nM | –
54 | B12 | 35.6 nM | –
55 | B13 | 62.4 nM | –
56 | B14 | 22.7 nM | –
57 | B15 | 16.1 nM | –
58 | B16 | – | no binding
59 | B17 | – | no binding
60 | B18 | 54.8 nM | –
61 | B19 | 16.6 nM | –
62 | B20 | – | no binding
63 | B21 | 377 nM | –

Target: T4, S1 RBD L452R E484Q (Acro) (SARS-CoV-2, UniProt P0DTC2 319-537)
T4 construct: domain: S1 RBD; also called SARS-COV-2 RBD India Var; L452R E484Q S1; India variant mutation L452R E484Q
Experiment: Carterra SPR

Row | Binder | binding result
64 | B1 | no binding
65 | B3 | no binding
66 | B4 | no binding
67 | B5 | no binding
68 | B6 | no binding
69 | B8 | no binding
70 | B9 | no binding
71 | B10 | no binding
72 | B11 | no binding
73 | B12 | no binding
74 | B13 | no binding
75 | B16 | no binding
76 | B17 | no binding
77 | B18 | no binding
78 | B19 | no binding
79 | B20 | no binding

Target: T5, SARS-CoV-2 S1 [S1N-C52H4] (SARS-CoV-2, UniProt P0DTC2 16-685)
T5 construct: domain: S1
Experiment: Carterra SPR

Row | Binder | Kd
80 | B15 | 4.12 nM

Target: T1, Antibody 178-08_His 501.V2 (27079)
Experiment: Carterra SPR
Remark: another data set of the same source

Row | Binder | Kd
81 | B14 | 74.9 nM
82 | B15 | 96700 nM
83 | B19 | 22 nM

Target: T2, Antibody 178-10_His …
Experiment: Carterra SPR
Remark: another data set of the same source

Row | Binder | Kd | binding result
84 | B4 | 55.9 nM | –
85 | B22 | 12.7 nM | –
86 | B14 | 34.8 nM | –
87 | B15 | 41 nM | –
88 | B23 | 26.8 nM | –
89 | B24 | – | no binding

Target: T3, Antibody 178-09_His B.1.1.7 (27080)
Experiment: Carterra SPR
Remark: another data set of the same source

Row | Binder | Kd
90 | B4 | 32 nM
91 | B14 | 22.7 nM
92 | B15 | 16.1 nM
93 | B19 | 16.6 nM
